Assay results taken from patent US20250346679A1 (INVOX PHARMA, published 2025).

Key:
[1] = biological target: T1, cynomolgus CD137, cell-surface (cynomolgus, UniProt Q07011 24-255 (human entry)); experiment: cell-based or functional assay
T1 chain: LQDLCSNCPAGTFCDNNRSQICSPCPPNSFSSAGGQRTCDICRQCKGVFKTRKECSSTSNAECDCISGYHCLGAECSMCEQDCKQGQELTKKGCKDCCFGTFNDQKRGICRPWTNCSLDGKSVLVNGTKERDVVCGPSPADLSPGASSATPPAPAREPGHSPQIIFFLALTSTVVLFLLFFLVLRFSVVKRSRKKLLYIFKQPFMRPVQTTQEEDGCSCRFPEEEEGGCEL

[2] = biological target: human CD137, cell-surface (human, UniProt Q07011 24-255); experiment: cell-based or functional assay
[3] = biological target: T2, hCD137-mFc-Avi (human; mouse, UniProt Q07011 24-186, biotin on the Avi sequence where the biotinylated form was used); experiment: flow cytometry of yeast clones with 10 nM dimeric human antigen
T2 construct: also called human CD137-mFc-Avi; dimeric human CD137; not shown: mouse IgG2a Fc domain (mIgG2a Fc)
T2 sequence (Q07011 24-186): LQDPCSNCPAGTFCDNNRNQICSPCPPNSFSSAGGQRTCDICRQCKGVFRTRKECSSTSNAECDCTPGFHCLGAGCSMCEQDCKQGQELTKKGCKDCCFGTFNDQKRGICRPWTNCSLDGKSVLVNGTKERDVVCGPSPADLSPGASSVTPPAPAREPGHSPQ

B1: FS22-053-008-AA/G12v2 (bispecific antibody, human IgG1, kappa, L234A L235A)
heavy: EVQLVQSGAEVKRPGASVKVSCKASGYTFTSYGISWVRQAPGQGLEWMGWISAYSGGTNYAQKLQGRVTMTTDTSTSTAYMELRSLRSDDTAVYYCARDLFPTIFGVSYYYYWGQGTLVTVSSASTKGPSVFPLAPSSKSTSGGTAALGCLVKDYFPEPVTVSWNSGALTSGVHTFPAVLQSSGLYSLSSVVTVPSSSLGTQTYICNVNHKPSNTKVDKKVEPKSCDKTHTCPPCPAPEAAGGPSVFLFPPKPKDTLMISRTPEVTCVVVDVSHEDPEVKFNWYVDGVEVHNAKTKPREEQYNSTYRVVSVLTVLHQDWLNGKEYKCKVSNKALPAPIEKTISKAKGQPREPQVYTLPPSRDELNPPYLFSNQVSLTCLVKGFYPSDIAVEWESNGQPENNYKTTPPVLDSDGSFFLYSKLTVDYWRWLEGNVFSCSVMHEALHNHYTQKSLSLSPG
light: DIQMTQSPSTLSASVGDRVTITCRASQSISGRLAWYQQKPGKAPNLLIYEASNLESGVPSRFSGSGSGTEFTLTISSLQPEDFATYYCQQSYSWPRTFGQGTKVEIKRTVAAPSVFIFPPSDEQLKSGTASVVCLLNNFYPREAKVQWKVDNALQSGNSQESVTEQDSKDSTYSLSSTLTLSKADYEKHKVYACEVTHQGLSSPVTKSFNRGEC
- EC50 (nM) (crosslinked), mIL-2 release, DO11.10.cCD137 with HEK.cyPD-L1 [1]: 0.07 nM
- Emax (pg/ml) (crosslinked), mIL-2 release, DO11.10.cCD137 with HEK.cyPD-L1 [1]: 9660 pg/mL
- EC50 (nM), hIL-2 release, CD8+ T cells, donor 171115A, HEK.hPD-L1 XL [2]: 0.13 nM
- EC50 (nM), hIL-2 release, CD8+ T cells, donor 171115A, MDA-MB-231 XL [2]: 0.02 nM
- EC50 (nM), hIL-2 release, CD8+ T cells, donor 171115B, HEK.hPD-L1 XL [2]: 0.12 nM
- EC50 (nM), hIL-2 release, CD8+ T cells, donor 171115B, MDA-MB-231 XL [2]: 0.02 nM

B2: FS22-053-017-AA/G12v2 (bispecific antibody, human IgG1, kappa, L234A L235A)
heavy: EVQLVQSGAEVKRPGASVKVSCKASGYTFTSYGISWVRQAPGQGLEWMGWISAYSGGTNYAQKLQGRVTMTTDTSTSTAYMELRSLRSDDTAVYYCARDLFPTIFGVSYYYYWGQGTLVTVSSASTKGPSVFPLAPSSKSTSGGTAALGCLVKDYFPEPVTVSWNSGALTSGVHTFPAVLQSSGLYSLSSVVTVPSSSLGTQTYICNVNHKPSNTKVDKKVEPKSCDKTHTCPPCPAPEAAGGPSVFLFPPKPKDTLMISRTPEVTCVVVDVSHEDPEVKFNWYVDGVEVHNAKTKPREEQYNSTYRVVSVLTVLHQDWLNGKEYKCKVSNKALPAPIEKTISKAKGQPREPQVYTLPPSRDELNPPYLFSNQVSLTCLVKGFYPSDIAVEWESNGQPENNYKTTPPVLDSDGSFFLYSKLTVYHWRWLEGNVFSCSVMHEALHNHYTQKSLSLSPG
light: DIQMTQSPSTLSASVGDRVTITCRASQSISGRLAWYQQKPGKAPNLLIYEASNLESGVPSRFSGSGSGTEFTLTISSLQPEDFATYYCQQSYSWPRTFGQGTKVEIKRTVAAPSVFIFPPSDEQLKSGTASVVCLLNNFYPREAKVQWKVDNALQSGNSQESVTEQDSKDSTYSLSSTLTLSKADYEKHKVYACEVTHQGLSSPVTKSFNRGEC
- EC50 (nM) (crosslinked), mIL-2 release, DO11.10.cCD137 with HEK.cyPD-L1 [1]: 0.08 nM
- Emax (pg/ml) (crosslinked), mIL-2 release, DO11.10.cCD137 with HEK.cyPD-L1 [1]: 8930 pg/mL
- EC50 (nM), hIL-2 release, CD8+ T cells, donor 171115A, HEK.hPD-L1 XL [2]: 0.1 nM
- EC50 (nM), hIL-2 release, CD8+ T cells, donor 171115A, MDA-MB-231 XL [2]: 0.01 nM
- EC50 (nM), hIL-2 release, CD8+ T cells, donor 171115B, HEK.hPD-L1 XL [2]: 0.2 nM
- EC50 (nM), hIL-2 release, CD8+ T cells, donor 171115B, MDA-MB-231 XL [2]: 0.01 nM

B3: FS22-053-017-AA/E05v2 (bispecific antibody, human IgG1, kappa, L234A L235A)
heavy: EVQLVQSGAEVKRPGASVKVSCKASGYTFTSYGISWVRQAPGQGLEWMGWISAYSGGTNYAQKLQGRVTMTTDTSTSTAYMELRSLRSDDTAVYYCARDLFPTIFGVSYYYYWGQGTLVTVSSASTKGPSVFPLAPSSKSTSGGTAALGCLVKDYFPEPVTVSWNSGALTSGVHTFPAVLQSSGLYSLSSVVTVPSSSLGTQTYICNVNHKPSNTKVDKKVEPKSCDKTHTCPPCPAPEAAGGPSVFLFPPKPKDTLMISRTPEVTCVVVDVSHEDPEVKFNWYVDGVEVHNAKTKPREEQYNSTYRVVSVLTVLHQDWLNGKEYKCKVSNKALPAPIEKTISKAKGQPREPQVYTLPPSRDELNPPYLFSNQVSLTCLVKGFYPSDIAVEWESNGQPENNYKTTPPVLDSDGSFFLYSKLTVYHWRWLEGNVFSCSVMHEALHNHYTQKSLSLSPG
light: DIQMTQSPSTLSASVGDRVTITCRASQSISGRLAWYQQKPGKAPNLLIYEASNLESGVPSRFSGSGSGTEFTLTISSLQPEDFATYYCQQSYSTPRVTFGQGTKVEIKRTVAAPSVFIFPPSDEQLKSGTASVVCLLNNFYPREAKVQWKVDNALQSGNSQESVTEQDSKDSTYSLSSTLTLSKADYEKHKVYACEVTHQGLSSPVTKSFNRGEC
- EC50 (nM) (crosslinked), mIL-2 release, DO11.10.cCD137 with HEK.cyPD-L1 [1]: 0.1 nM
- Emax (pg/ml) (crosslinked), mIL-2 release, DO11.10.cCD137 with HEK.cyPD-L1 [1]: 9020 pg/mL
- EC50 (nM), hIL-2 release, CD8+ T cells, donor 171115A, HEK.hPD-L1 XL [2]: 0.15 nM
- EC50 (nM), hIL-2 release, CD8+ T cells, donor 171115A, MDA-MB-231 XL [2]: 0.01 nM
- EC50 (nM), hIL-2 release, CD8+ T cells, donor 171115B, HEK.hPD-L1 XL [2]: 0.12 nM
- EC50 (nM), hIL-2 release, CD8+ T cells, donor 171115B, MDA-MB-231 XL [2]: 0.01 nM

B4: FS22-172-004 Fcab clone displayed on yeast (designed binder)
chain: GQPREPQVYTLPPSRDELNYIYPPYNQVSLTCLVKGFYPSDIAVEWESNGQPENNYKTTPPVLDSDGSFFLYSKLTVGADRWLEGNVFSCSVMHEALHNHYTQKSLSLSPG
- % APC positive cells [3]: > 10%

B5: FS22-172-003 Fcab clone displayed on yeast (designed binder)
chain: GQPREPQVYTLPPSRDELPYIIPPYNQVSLTCLVKGFYPSDIAVEWESNGQPENNYKTTPPVLDSDGSFFLYSKLTVGADRWLEGNVFSCSVMHEALHNHYTQKSLSLSPG
- % APC positive cells [3]: > 10%

B6: FS22-053-012 Fcab clone displayed on yeast (designed binder)
chain: GQPREPQVYTLPPSRDELNPPYLFSNQVSLTCLVKGFYPSDIAVEWESNGQPENNYKTTPPVLDSDGSFFLYSKLTVDHMRWLEGNVFSCSVMHEALHNHYTQKSLSLSPG
notes: yeast display clone, FS22-053 EF library
- % APC positive cells [3]: > 30%

B7: FS22-053-009 Fcab clone displayed on yeast (designed binder)
chain: GQPREPQVYTLPPSRDELNPPYLFSNQVSLTCLVKGFYPSDIAVEWESNGQPENNYKTTPPVLDSDGSFFLYSKLTVEHTRWLDGNVFSCSVMHEALHNHYTQKSLSLSPG
notes: as for B6
- % APC positive cells [3]: > 30%

B8: FS22-053-010 Fcab clone displayed on yeast (designed binder)
chain: GQPREPQVYTLPPSRDELNPPYLFSNQVSLTCLVKGFYPSDIAVEWESNGQPENNYKTTPPVLDSDGSFFLYSKLTVDYMRWLDGNVFSCSVMHEALHNHYTQKSLSLSPG
notes: as for B6
- % APC positive cells [3]: > 30%

B9: FS22-172-005 Fcab clone displayed on yeast (designed binder)
chain: GQPREPQVYTLPPSRDELQQVYPPYNQVSLTCLVKGFYPSDIAVEWESNGQPENNYKTTPPVLDSDGSFFLYSKLTVGADRWLEGNVFSCSVMHEALHNHYTQKSLSLSPG
- % APC positive cells [3]: > 10%

B10: FS22-053-008 Fcab clone displayed on yeast (designed binder)
chain: GQPREPQVYTLPPSRDELNPPYLFSNQVSLTCLVKGFYPSDIAVEWESNGQPENNYKTTPPVLDSDGSFFLYSKLTVDYWRWLEGNVFSCSVMHEALHNHYTQKSLSLSPG
notes: as for B6
- % APC positive cells [3]: > 30%

B11: FS22-172-006 Fcab clone displayed on yeast (designed binder)
chain: GQPREPQVYTLPPSRDELRKYYPPYNQLSLTCLVKGFYPSDIAVEWESNGQPENNYKTTPPVLDSDGSFFLYSKLTVGADRWLEGNVFSCSVMHEALHNHYTQKSLSLSPG
- % APC positive cells [3]: > 10%

B12: FS22-172-001 Fcab clone displayed on yeast (designed binder)
chain: GQPREPQVYTLPPSRDELPFVMPPYNQVSLTCLVKGFYPSDIAVEWESNGQPENNYKTTPPVLDSDGSFFLYSKLTVGADRWLEGNVFSCSVMHEALHNHYTQKSLSLSPG
- % APC positive cells [3]: > 10%

B13: FS22-053-011 Fcab clone displayed on yeast (designed binder)
chain: GQPREPQVYTLPPSRDELNPPYLFSNQVSLTCLVKGFYPSDIAVEWESNGQPENNYKTTPPVLDSDGSFFLYSKLTVDYWRWTDGNVFSCSVMHEALHNHYTQKSLSLSPG
notes: as for B6
- % APC positive cells [3]: > 30%

B14: FS22-172-002 Fcab clone displayed on yeast (designed binder)
chain: GQPREPQVYTLPPSRDELPFQMPPYNQVSLTCLVKGFYPSDIAVEWESNGQPENNYKTTPPVLDSDGSFFLYSKLTVGADRWLEGNVFSCSVMHEALHNHYTQKSLSLSPG
- % APC positive cells [3]: > 10%
